Measurements from patent US20220363752A1 (VERSEAU THERAPEUTICS, published 2022).
Primed or numbered codes have the meaning given here. Biotin′ = not defined here

T1: LRRC25(51-69) biotin peptide (human, not fully specified; N-terminal acetyl; C-terminal GGK-Biotin)
T1 peptide: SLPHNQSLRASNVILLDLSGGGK

T2: LRRC25(111-130) biotin peptide (human, not fully specified; N-terminal acetyl; C-terminal GGK-Biotin; native Cys changed to Ser)
T2 peptide: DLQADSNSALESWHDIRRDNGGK

T3: LRRC25(141-159) biotin peptide (human, not fully specified; N-terminal acetyl; C-terminal GGK-Biotin; native Cys changed to Ser)
T3 peptide: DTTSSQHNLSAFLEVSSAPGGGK

T4: LRRC25(36-55) biotin peptide (human, not fully specified; N-terminal NH2; C-terminal GGK-Biotin; native Cys changed to Ser)
T4 peptide: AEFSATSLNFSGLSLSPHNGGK

T5: LRRC25(96-115) biotin peptide (human, not fully specified; N-terminal acetyl; C-terminal GGK-Biotin; native Cys changed to Ser)
T5 construct: also called Biotin LRRC25 (96-115) peptide
T5 peptide: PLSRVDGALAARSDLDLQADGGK

T6: LRRC25(150-165) biotin peptide (human)
T6 peptide: Ac-SAFLEVSSAPGLASATGG-{Biotin′}

T7: LRRC25(21-40) biotin peptide (human, not fully specified; N-terminal NH2; C-terminal GGK-Biotin; native Cys changed to Ser)
T7 peptide: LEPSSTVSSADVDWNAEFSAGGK

T8: LRRC25(126-145) biotin peptide (human, not fully specified; N-terminal acetyl; C-terminal GGK-Biotin; native Cys changed to Ser)
T8 peptide: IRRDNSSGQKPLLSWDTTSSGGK

T9: LRRC25(66-85) biotin peptide (human, not fully specified; N-terminal acetyl; C-terminal GGK-Biotin)
T9 peptide: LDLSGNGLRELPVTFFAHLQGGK

T10: LRRC25(81-100) biotin peptide (human, not fully specified; N-terminal acetyl; C-terminal GGK-Biotin)
T10 peptide: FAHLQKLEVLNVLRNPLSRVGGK

B1: anti-LRRC25 chimeric antibody 3A08 (antibody, human IgG4)
heavy: DVKLVESGGGLVKPGGSLKLSCAVSGFTLSSYAMSWVRQTPEKRLEWVASISRGGSTYYPDSVKGRFTISRDNGRNILNLQMSSLRSEDTAIYYCARGGGSTMITSLFAYWGQGTLVTVSAASTKGPSVFPLAPCSRSTSESTAALGCLVKDYFPEPVTVSWNSGALTSGVHTFPAVLQSSGLYSLSSVVTVPSSSLGTKTYTCNVDHKPSNTKVDKRVESKYGPPCPPCPAPEFLGGPSVFLFPPKPKDTLMISRTPEVTCVVVDVSQEDPEVQFNWYVDGVEVHNAKTKPREEQFNSTYRWSVLTVLHQDWLNGKEYKCKVSNKGLPSSIEKTISKAKGQPREPQVYTLPPSQEEMTKNQVSLTCLVKGFYPSDIAVEWESNGQPENNYKTTPPVLDSDGSFFLYSRLTVDKSRWQEGNVFSCSVMHEALHNHYTQKSLSLSLGK
light: DIVMTQAAFSNPVTLGTSASISCRSSKSLLHSNGITYLYWYLQKPGQSPQLLIYQMSNLASGVPDRFSSSGSGTDFTLRISRVEAEDVGVYYCAQNLELPFTFGSGTKLEIKRTVAAPSVFIFPPSDEQLKSGTASVVCLLNNFYPREAKVQWKVDNALQSGNSQESVTEQDSKDSTYSLSSTLTLSKADYEKHKVYACEVTHQGLSSPVTKSFNRGEC
notes: also called mAb 3A08
B2: anti-LRRC25 chimeric antibody 2D09 (antibody, human IgG4, V domains shown)
VH: QVTLKESGPGTVQPSQTLSLTCSFSGFSLSTSGMGVSWIRQSSGKGLEWLAHIYWDDDKRYNPSLKSRLTISKDTSSNQVFLRITSVDTADTATYYCARRPRDFYGGGHWYFDVWGAGTTVTVSS
VL: DVVMTQTPKSMSMSVGERVTLNCKASENVGTYVSWYQQKPEQSPKLLIYGASNRYTGVPDRFTGSGSATDFTLTISSMQAEDLADYHCGQSYNFPLTFGAGTKLELKR
notes: also called mAb 2D09; MAb 2D09

What was measured:
[1] = biological target: T11, His-tagged human LRRC25 extracellular domain protein, human LRRC25-His (human, UniProt Q8N386 21-165); assay: ELISA, plate-immobilized antigen
T11 construct: The entry holds the extracellular domain, a GSG linker and the His tag; also called LRRC25(ECD)-HIS
T11 sequence (Q8N386 other isoform, or with tags, fused parts or gaps): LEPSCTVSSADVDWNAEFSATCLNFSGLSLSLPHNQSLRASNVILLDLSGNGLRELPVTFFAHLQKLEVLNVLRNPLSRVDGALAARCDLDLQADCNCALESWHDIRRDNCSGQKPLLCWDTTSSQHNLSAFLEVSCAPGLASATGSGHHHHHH
Procedure, shortened: (§1)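 Wells coated overnight at 4 °C with 1 ug/mL antigen in PBS pH 7.4. Antibodies titrated from 500 nM in 3-fold steps in 1% skimmed milk/PBS, 1 h at room temperature, then HRP anti-human IgG; TMB read at A450 nm and EC50 taken from binding curves.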

[2] = biological target: T1, LRRC25(51-69) biotin peptide; assay: peptide ELISA
Procedure, shortened: (§2)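 Plate-bound streptavidin captured biotinylated 16- to 20-mer LRRC25 ECD overlapping peptides (2 ug/mL), with biotinylated human LRRC25-His as positive control. Chimeric anti-LRRC25 antibodies at 20 nM, 45 min at 37° C in duplicate; detection by HRP anti-human IgG and TMB at A450 nm.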

[3] = biological target: T2, LRRC25(111-130) biotin peptide; assay: peptide ELISA
Procedure, shortened: as §2

[4] = biological target: T3, LRRC25(141-159) biotin peptide; assay: peptide ELISA
Procedure, shortened: as §2

[5] = biological target: T4, LRRC25(36-55) biotin peptide; assay: peptide ELISA
Procedure, shortened: as §2

[6] = biological target: T5, LRRC25(96-115) biotin peptide; assay: peptide ELISA
Procedure, shortened: as §2

[7] = biological target: T6, LRRC25(150-165) biotin peptide; assay: peptide ELISA
Procedure, shortened: as §2

[8] = biological target: T7, LRRC25(21-40) biotin peptide; assay: peptide ELISA
Procedure, shortened: as §2

[9] = biological target: T8, LRRC25(126-145) biotin peptide; assay: peptide ELISA
Procedure, shortened: as §2

[10] = biological target: T9, LRRC25(66-85) biotin peptide; assay: peptide ELISA
Procedure, shortened: as §2

[11] = biological target: T10, LRRC25(81-100) biotin peptide; assay: peptide ELISA
Procedure, shortened: as §2

[12] = biological target: T5, LRRC25(96-115) biotin peptide; assay: ELISA, 20 nM antibody, biotinylated antigen on streptavidin plate
Procedure, shortened: as §2

[13] = biological target: T12, biotinylated human LRRC25-His protein (human, UniProt Q8N386 21-165, biotinylated (sites not given)); assay: as above
T12 construct: also called Biotin LRRC25-His; biotinylated LRRC25 protein
T12 sequence (Q8N386 other isoform, or with tags, fused parts or gaps): as above
Procedure, shortened: as §2

[14] = biological target: T13, His-tagged cynomolgus monkey LRRC25 extracellular domain protein, cyno LRRC25-His (cynomolgus monkey); assay: ELISA, antibody titrated on plate-immobilized Cyno LRRC25(ECD)-His, A450nm against -log [IgG] (M), right panel
T13 construct: The entry holds the extracellular domain, a GSG linker and the His tag
T13 sequence (chain, as listed by the source limits assumed): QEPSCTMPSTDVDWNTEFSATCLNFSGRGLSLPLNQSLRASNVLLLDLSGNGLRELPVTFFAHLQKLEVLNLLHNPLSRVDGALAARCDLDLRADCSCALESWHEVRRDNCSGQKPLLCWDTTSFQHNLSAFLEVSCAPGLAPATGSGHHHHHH
Method: (§3) To establish the relative binding strengths of anti-LRRC25 antibodies against human LRRC25, and their cross-reactivity with cynomolgus monkey LRRC25, antibody binding curve analyses were performed and EC50 values against plate-immobilized recombinant human and cyno LRRC25 proteins were determined.
(§4) A typical ELISA was performed by coating overnight in PBS, pH 7.4, at 4° C. in high binding microtiter wells with 1 ug/mL/100 ul per well of human LRRC25-His or cyno LRRC25-His. An anti-human LRRC25 antibody (2A3, LS Bio, LS-C174039-100) and anti-HIS-HRP (Miltenyi Biotec; 130-092-783) served as coating controls for the human and cyno LRRC25 proteins, respectively. […] Anti-LRRC25 antibodies were added (100 ul per well) at 500 nM and serially diluted 3-fold in assay buffer (1% skimmed milk in PBS, pH 7.4). The plate was incubated with gentle agitation for 1 h at room temperature. The plate was washed 3× and HRP-conjugated secondary antibody in assay buffer added [100 ul per well; goat anti-human IgG (Jackson Immunoresearch, cat #715-035-150)], and the plate was incubated as before. Antibody bound to plate-immobilized LRRC25(ECD)-HIS was determined at A450 nm using HRP substrate (3,3′,5,5′-tetramethylbenzidine (TMB); eBioscience; 00-4201-56); 100 μl/well).

[15] = biological target: T13, His-tagged cynomolgus monkey LRRC25 …; assay: ELISA, plate-immobilized antigen
Procedure, shortened: as §1

[16] = biological target: T10, LRRC25(81-100) biotin peptide; assay: ELISA, 20 nM antibody, biotinylated antigen on streptavidin plate
Procedure, shortened: as §2

[17] = biological target: T11, His-tagged human LRRC25 extracellular …; assay: ELISA, antibody titrated on plate-immobilized Human LRRC25(ECD)-His, A450nm against -log [IgG] (M), left panel
Method: as §3, §4

Binder	EC50 [1]	binding result [2]	binding result [3]	binding result [4]	binding result [5]	binding result [6]	binding result [7]	binding result [8]	binding result [9]	binding result [10]	binding result [11]	absorbance (A450) [12]	absorbance (A450) [13]	binding result [14]	EC50 [15]	absorbance (A450) [16]	fold lower assay signal than with the biotinylated LRRC25 protein [16]	EC50 (read off the curve) [17]	EC50 (read off the curve) [14]
B1	51.1 nM	no binding (tested: 20 nM)	no binding (tested: 20 nM)	no binding (tested: 20 nM)	no binding (tested: 20 nM)	no binding (tested: 20 nM)	no binding (tested: 20 nM)	no binding (tested: 20 nM)	no binding (tested: 20 nM)	no binding (tested: 20 nM)	no binding (tested: 20 nM)	0.088 A450	0.305 A450	no binding (tested: about 5e-7 M (-log [IgG] about 6.3))					
B2	1.2 nM											0.095 A450	2.5 A450		0.68 nM	0.676 A450	~4 fold	~1 nM	~0.7 nM
